Reference: patent publication US20260022150A1 (KEROS THERAPEUTICS, published 2026)

Molecular target: T1, human GDNF family receptor alpha-1 (GFRα1) joined to an Fc domain at its C-terminus (human, UniProt P56159-2 25-445)
T1 construct: Bought from R&D Systems; also called GFRa1-hFc; human GFRα1 Fc chimera (R&D Systems); not shown: human Fc domain joined to the C-terminus of GFRα1
T1 sequence (looked up): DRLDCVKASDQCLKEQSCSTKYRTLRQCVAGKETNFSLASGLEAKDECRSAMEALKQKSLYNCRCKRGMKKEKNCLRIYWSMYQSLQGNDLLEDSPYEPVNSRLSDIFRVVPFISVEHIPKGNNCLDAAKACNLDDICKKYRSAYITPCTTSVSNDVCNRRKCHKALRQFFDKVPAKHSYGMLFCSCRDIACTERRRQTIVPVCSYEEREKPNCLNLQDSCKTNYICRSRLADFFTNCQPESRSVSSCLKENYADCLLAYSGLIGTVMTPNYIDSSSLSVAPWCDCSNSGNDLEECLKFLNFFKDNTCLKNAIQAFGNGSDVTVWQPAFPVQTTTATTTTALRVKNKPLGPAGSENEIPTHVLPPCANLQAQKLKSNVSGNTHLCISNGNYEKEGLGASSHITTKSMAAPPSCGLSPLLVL
Assay: SPR; GFRα1-Fc chimera captured on CM5 chip by His-tag capture kit, analyte flowed over; apparent KD (KD,app)
From the text: Surface Plasmon Resonance (SPR) was used to determine the binding affinities of the GDNF fusion polypeptides to GFRα1. The GDNF fusion polypeptides in this example include fusion polypeptides 2-4 as described in Example 1, as well as Fc (T366W)-GGG-hGDNF₁₁₇₋₂₁₁ (SEQ ID NO: 37) (fusion polypeptide 6) which has an Fc domain having the amino acid substitution T366W (relative to the sequence of human IgG1) joined to the N-terminus of the GDNF variant having amino acids 117-211 of SEQ ID NO: 1 through a GGG linker. The SPR assay was configured to capture human GFRα1, GFRα2, and GFRα3 Fc chimeras (R&D Systems) onto a CM5 chip surface using His-tag capture kit (GE Healthcare) to appropriate levels for kinetic analysis. GDNF fusion polypeptides were flowed over the immobilized GFRs to measure the kinetics of GDNF fusion polypeptide and GFR association and dissociation. The binding of various concentrations of GDNF fusion polypeptides was measured in HBS-EP buffer (GE Healthcare) at a flow rate of 30 μL/min. Binding curves were fitted using Scrubber2 software to obtain apparent binding affinities and kinetic constants.

- Kd: ~0.9 nM
B1: R&D hGDNF (ligand, human, UniProt P39905 78-211, looked up)
chain: SPDKQMAVLPRRERNRQAAAANPENSRGKGRRGQRGKNRGCVLTAIHLNVTDLGLGYETKEELIFRYCSGSCDAAETTYDKILKNLSRNRRLVSDKVGQACCRPIAFDDDLSFLDDNLVYHILRKHSAKRCGCI
notes: also called human glial-derived neurotrophic factor
